{
  "source": "patent US20110015139A1",
  "about": "(HE HENRY M JACKSON FOUNDATION FOR THE ADVANCEMENT OF …, published 2011)",
  "binders": {"B1": {"name": "NA7 (peptide)", "peptide": "EVHHQKL"}, "B2": {"name": "NA4 (peptide)", "peptide": "SGYEVHH"}, "B3": {"name": "NAHIS04 (Ac-His-His-His-His-CONH2) (peptide)", "peptide": "Ac-HHHH-NH2"}},
  "target": "amyloid beta (Aβ) peptide, incorporated in membranes as the Aβ channel",
  "assay": "cell-based or functional assay",
  "data": [
    {"binder": "B1", "values": [
      {"measurement": "EC50 of protection of PC12 cells from Aβ cytotoxicity (LDH release), as a multiple of the EC50 of NAHIS04", "result": "2 to 3", "unit": "times"}
    ]},
    {"binder": "B2", "values": [
      {"measurement": "EC50 of protection of PC12 cells from Aβ cytotoxicity (LDH release), as a multiple of the EC50 of NAHIS04", "result": "2 to 3", "unit": "times"}
    ]},
    {"binder": "B3", "values": [
      {"measurement": "concentration required for 50% protection (EC50) of PC12 cells from Aβ cytotoxicity, LDH release assay, 3 days", "result": "< 1", "unit": "µM"},
      {"measurement": "speed of 50% reduction of the flow of ionic charges, relative to NAHIS02", "result": 8, "unit": "fold"}
    ]}
  ]
}
